Experimental data reported in paper PMC10681739, “High-throughput data and modeling reveal insights into the mechanisms of cooperative DNA-binding by transcription factor proteins”.

Biological target: RUNX1 (Homo sapiens, UniProt Q01196)
Assay: gcPBM; 2 nM RUNX1
Details: tags: N-terminal GST (pDEST15), kept (PMC6008103); label: surface-attached array probe

RUNX1, sequence (Q01196 whole entry): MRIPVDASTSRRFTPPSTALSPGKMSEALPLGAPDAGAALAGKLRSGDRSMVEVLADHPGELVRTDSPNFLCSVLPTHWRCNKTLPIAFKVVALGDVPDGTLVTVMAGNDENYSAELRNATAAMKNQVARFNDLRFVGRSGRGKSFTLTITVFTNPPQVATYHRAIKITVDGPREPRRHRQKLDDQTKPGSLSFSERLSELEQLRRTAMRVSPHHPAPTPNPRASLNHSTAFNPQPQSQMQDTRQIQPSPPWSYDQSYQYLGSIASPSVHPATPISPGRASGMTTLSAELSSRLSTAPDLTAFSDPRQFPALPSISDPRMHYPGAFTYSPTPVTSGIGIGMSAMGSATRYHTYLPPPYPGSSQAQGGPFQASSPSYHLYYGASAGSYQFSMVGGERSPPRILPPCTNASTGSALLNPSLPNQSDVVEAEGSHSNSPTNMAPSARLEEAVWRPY

Binder	binding signal
Table S3 C row 74 (dsDNA) DNA 1: GTCATCTCGTTGACACTTCCGCTGACCCGTGCAGTT DNA 2: AACTGCACGGGTCAGCGGAAGTGTCAACGAGATGAC	697 PBM fluorescence, median of replicate spots
Table S3 C row 11 (dsDNA) DNA 1: AAAAGCATCCCCAGACTTCCTGTTGGGAGCTCTCTG DNA 2: CAGAGAGCTCCCAACAGGAAGTCTGGGGATGCTTTT	697 PBM fluorescence, median of replicate spots
Table S3 C row 29 (dsDNA) DNA 1: CCGGTCTCGCGATAGCGGAAAGGGCTGTACCATCTG DNA 2: CAGATGGTACAGCCCTTTCCGCTATCGCGAGACCGG	697 PBM fluorescence, median of replicate spots
Table S3 C row 79 (dsDNA) DNA 1: TTGCAAGTACACCTGCATCCGGTGGCATGTTTTAGT DNA 2: ACTAAAACATGCCACCGGATGCAGGTGTACTTGCAA	712 PBM fluorescence, median of replicate spots
Table S3 C row 128 (dsDNA) DNA 1: GGTCCCGCCCCTGGCCGGAAGTTCTGGCGGCGGAGC DNA 2: GCTCCGCCGCCAGAACTTCCGGCCAGGGGCGGGACC	714 PBM fluorescence, median of replicate spots
Table S3 C row 65 (dsDNA) DNA 1: TTCACTGAACGGCTTCATCCTGTGCTTTGGGAGGCA DNA 2: TGCCTCCCAAAGCACAGGATGAAGCCGTTCAGTGAA	718 PBM fluorescence, median of replicate spots
Table S3 C row 188 (dsDNA) DNA 1: GCAAGCGGGCCTGGGCGGATGTCTCGGGCGCGTCGG DNA 2: CCGACGCGCCCGAGACATCCGCCCAGGCCCGCTTGC	720 PBM fluorescence, median of replicate spots
Table S3 C row 132 (dsDNA) DNA 1: GAGAGACCTGGGCCACTTCCGGGAGAACCCGAGCTT DNA 2: AAGCTCGGGTTCTCCCGGAAGTGGCCCAGGTCTCTC	721 PBM fluorescence, median of replicate spots
Table S3 C row 62 (dsDNA) DNA 1: GGGAGAAGCGGGAGGCGGAACGCCCGAGGGCGCCCT DNA 2: AGGGCGCCCTCGGGCGTTCCGCCTCCCGCTTCTCCC	722 PBM fluorescence, median of replicate spots
Table S3 C row 180 (dsDNA) DNA 1: CTGTGCAGCGTCCTCCTTCCGGGTGCAGGCGGGCCT DNA 2: AGGCCCGCCTGCACCCGGAAGGAGGACGCTGCACAG	722 PBM fluorescence, median of replicate spots
Table S3 C row 26 (dsDNA) DNA 1: GACACTGGAGGGAGCCGGAAGTACCTCGGAGTTTTA DNA 2: TAAAACTCCGAGGTACTTCCGGCTCCCTCCAGTGTC	723 PBM fluorescence, median of replicate spots
Table S3 C row 172 (dsDNA) DNA 1: TGGCTGAGACTGAGACGGAAGGATCCTTGCGCCCAG DNA 2: CTGGGCGCAAGGATCCTTCCGTCTCAGTCTCAGCCA	723 PBM fluorescence, median of replicate spots
Table S3 C row 166 (dsDNA) DNA 1: ACCCCGGGTCGGAGTGTTCCGGCCCGGCCAGCCCCG DNA 2: CGGGGCTGGCCGGGCCGGAACACTCCGACCCGGGGT	724 PBM fluorescence, median of replicate spots
Table S3 C row 81 (dsDNA) DNA 1: GGCCCATTGTCCGCGCTTCCGTTCAGGCTCCGCCTC DNA 2: GAGGCGGAGCCTGAACGGAAGCGCGGACAATGGGCC	725 PBM fluorescence, median of replicate spots
Table S3 C row 173 (dsDNA) DNA 1: CGCTATCGGGGCAGCAGGAAGTCGCCATCTTGAATC DNA 2: GATTCAAGATGGCGACTTCCTGCTGCCCCGATAGCG	725 PBM fluorescence, median of replicate spots
Table S3 C row 200 (dsDNA) DNA 1: GCCCCTCACAGCCTGCTTCCGGGAGCCGGGCAGGCC DNA 2: GGCCTGCCCGGCTCCCGGAAGCAGGCTGTGAGGGGC	726 PBM fluorescence, median of replicate spots
Table S3 C row 178 (dsDNA) DNA 1: TGGCTGCTACGTCGTCTTCCTGGGCGAAAGTGCCTG DNA 2: CAGGCACTTTCGCCCAGGAAGACGACGTAGCAGCCA	726 PBM fluorescence, median of replicate spots
Table S3 C row 170 (dsDNA) DNA 1: ACCGGCGCGCACACGCTTCCGTGCTACGAGGCACTT DNA 2: AAGTGCCTCGTAGCACGGAAGCGTGTGCGCGCCGGT	726 PBM fluorescence, median of replicate spots
Table S3 C row 122 (dsDNA) DNA 1: ACCCTGAAGCCTCGCCGGAACTCGCGTCTGGGGCCA DNA 2: TGGCCCCAGACGCGAGTTCCGGCGAGGCTTCAGGGT	728 PBM fluorescence, median of replicate spots
Table S3 C row 176 (dsDNA) DNA 1: GCCGCCATGGGGCGCTATCCGGCCCCAGCCGGGACC DNA 2: GGTCCCGGCTGGGGCCGGATAGCGCCCCATGGCGGC	729 PBM fluorescence, median of replicate spots
Table S3 C row 144 (dsDNA) DNA 1: GTTTAAGCTCAGCGCCTTCCTGGTTCTAGCGCCAGG DNA 2: CCTGGCGCTAGAACCAGGAAGGCGCTGAGCTTAAAC	729 PBM fluorescence, median of replicate spots
Table S3 C row 138 (dsDNA) DNA 1: GGGGCCTGTTGTAGTTTTCCTGCATTCAAAGTACCC DNA 2: GGGTACTTTGAATGCAGGAAAACTACAACAGGCCCC	732 PBM fluorescence, median of replicate spots
Table S3 C row 52 (dsDNA) DNA 1: TTTCGCCGACCCCGCCGGAAGACCAGGCCGGCGCGG DNA 2: CCGCGCCGGCCTGGTCTTCCGGCGGGGTCGGCGAAA	732 PBM fluorescence, median of replicate spots

Binder	binding signal
Table S3 C row 87 (dsDNA) DNA 1: AGAGGAGGGGCCCGGCGGAAACTGCCGAGGTCTCCC DNA 2: GGGAGACCTCGGCAGTTTCCGCCGGGCCCCTCCTCT	733 PBM fluorescence, median of replicate spots
Table S3 C row 72 (dsDNA) DNA 1: CCCCGTCCACGGCCCCGGAAGCTGACGTCGCCGAAG DNA 2: CTTCGGCGACGTCAGCTTCCGGGGCCGTGGACGGGG	733 PBM fluorescence, median of replicate spots
Table S3 C row 174 (dsDNA) DNA 1: TTGCTCTGCGCATGGCGGAAAGGGTGCGCCGCCTGT DNA 2: ACAGGCGGCGCACCCTTTCCGCCATGCGCAGAGCAA	735 PBM fluorescence, median of replicate spots
Table S3 C row 164 (dsDNA) DNA 1: GGGCTGGGTGGAGACAGGAAGCTTCAGAGCCACTCC DNA 2: GGAGTGGCTCTGAAGCTTCCTGTCTCCACCCAGCCC	735 PBM fluorescence, median of replicate spots
Table S3 C row 69 (dsDNA) DNA 1: TCCCCGAGCGTGCAGCTTCCGGTGAGGGCAGCCCCA DNA 2: TGGGGCTGCCCTCACCGGAAGCTGCACGCTCGGGGA	735 PBM fluorescence, median of replicate spots
Table S3 C row 9 (dsDNA) DNA 1: CGTGACGCAGGGAAAGTTCCGGCTTCGGCCTCCGCC DNA 2: GGCGGAGGCCGAAGCCGGAACTTTCCCTGCGTCACG	736 PBM fluorescence, median of replicate spots
Table S3 C row 22 (dsDNA) DNA 1: CCGGATTGCCTTCACAGGAAGGGAAAGTCACTCCGG DNA 2: CCGGAGTGACTTTCCCTTCCTGTGAAGGCAATCCGG	737 PBM fluorescence, median of replicate spots
Table S3 C row 75 (dsDNA) DNA 1: GGAGCTCACCTTCCAGTTCCGGGAGGCAGGCCGGCC DNA 2: GGCCGGCCTGCCTCCCGGAACTGGAAGGTGAGCTCC	740 PBM fluorescence, median of replicate spots
Table S3 C row 36 (dsDNA) DNA 1: GGACGGCCTCTGAAGCTTCCGCGCCGACTTCTCCGA DNA 2: TCGGAGAAGTCGGCGCGGAAGCTTCAGAGGCCGTCC	741 PBM fluorescence, median of replicate spots
Table S3 C row 107 (dsDNA) DNA 1: CTCGAGCCCGCTCGGCTTCCGTAGCCCCGCCCCATC DNA 2: GATGGGGCGGGGCTACGGAAGCCGAGCGGGCTCGAG	743 PBM fluorescence, median of replicate spots
Table S3 C row 82 (dsDNA) DNA 1: TGATGGGGATCGGTCCGGATGTACTTCAACATCTTT DNA 2: AAAGATGTTGAAGTACATCCGGACCGATCCCCATCA	747 PBM fluorescence, median of replicate spots
Table S3 C row 53 (dsDNA) DNA 1: GCTGGGACGCCAGACCTTCCGGGTTGCCCGGCCCCG DNA 2: CGGGGCCGGGCAACCCGGAAGGTCTGGCGTCCCAGC	748 PBM fluorescence, median of replicate spots
Table S3 C row 161 (dsDNA) DNA 1: CTATCCCAGGCCTCGCTTCCGGTGACATCATGTCTC DNA 2: GAGACATGATGTCACCGGAAGCGAGGCCTGGGATAG	749 PBM fluorescence, median of replicate spots
Table S3 C row 179 (dsDNA) DNA 1: CACAAGCGAAACATTCGGAAGCAATTTACTTGCAGC DNA 2: GCTGCAAGTAAATTGCTTCCGAATGTTTCGCTTGTG	751 PBM fluorescence, median of replicate spots
Table S3 C row 192 (dsDNA) DNA 1: CCGCGCAAGCCCCGACATCCGGTTGGCCGGCGTGGG DNA 2: CCCACGCCGGCCAACCGGATGTCGGGGCTTGCGCGG	751 PBM fluorescence, median of replicate spots
Table S3 C row 127 (dsDNA) DNA 1: CTCCGAACTTAGGACAGGAAGAAACAGGCACATTTC DNA 2: GAAATGTGCCTGTTTCTTCCTGTCCTAAGTTCGGAG	751 PBM fluorescence, median of replicate spots
Table S3 C row 57 (dsDNA) DNA 1: TTCATTGTTAGGGAACATCCGGGCCTGTCCCCTCCC DNA 2: GGGAGGGGACAGGCCCGGATGTTCCCTAACAATGAA	752 PBM fluorescence, median of replicate spots
Table S3 C row 89 (dsDNA) DNA 1: AGCACAGCTTCGGGCCGGAATCACGATCCACCAGAC DNA 2: GTCTGGTGGATCGTGATTCCGGCCCGAAGCTGTGCT	755 PBM fluorescence, median of replicate spots
Table S3 C row 50 (dsDNA) DNA 1: GCGTGACAGAATGTGCTTCCGCTTGCGCCTCTGAGC DNA 2: GCTCAGAGGCGCAAGCGGAAGCACATTCTGTCACGC	755 PBM fluorescence, median of replicate spots
Table S3 C row 49 (dsDNA) DNA 1: TGGGACTGACTGAGTCTTCCGTGTGTCGCCGCCGTT DNA 2: AACGGCGGCGACACACGGAAGACTCAGTCAGTCCCA	756 PBM fluorescence, median of replicate spots
Table S3 C row 150 (dsDNA) DNA 1: TCTGAACTCTGACAACTTCCTGTCGCTCTGAGTGTG DNA 2: CACACTCAGAGCGACAGGAAGTTGTCAGAGTTCAGA	757 PBM fluorescence, median of replicate spots
Table S3 C row 154 (dsDNA) DNA 1: CCGGCTCATCTGGTATTTCCTGAGCACCTGCGACGT DNA 2: ACGTCGCAGGTGCTCAGGAAATACCAGATGAGCCGG	757 PBM fluorescence, median of replicate spots
